US11708565B2, “HPPD variants and methods of use” (BASF AGRICULTURAL SOLUTIONS SEED US LLC, priority 2017, dated 2023)

B1: SG10: HPPD variant, SEQ ID NO:3; P268D, E335P, G336D, N337S, K339Y, A340R, I345M (protein)
chain: MADLYENPMGLMGFEFIEFASPTPGTLEPIFEIMGFTKVATHRSKNVHLYRQGEINLILNNEPNSIASYFAAEHGPSVCGMAFRVKDSQKAYNRALELGAQPIHIDTGPMELNLPAIKGIGGAPLYLIDRFGEGSSIYDIDFVYLEGVERNPVGAGLKVIDHLTHNVYRGRMVYWANFYEKLFNFREARYFDIKGEYTGLTSKAMSAPDGMIRIPLNEESSKGAGQIEEFLMQFNGEGIQHVAFLTDDLVKTWDALKKIGMRFMTAPDDTYYEMLEGRLPDHGEPVDQLQARGILLDGSSVEGDKRLLLQIFSETLMGPVFFEFIQRKGDDGFGPDSFYRLFESMERDQVRRGVLTAD
modifications: SG10 Mutant HPPD
notes: P268D, E335P, G336D, N337S, K339Y, A340R, I345M
B2: SG1: HPPD variant, SEQ ID NO:2; E335P, G336D, N337S, K339Y, A340R relative to SEQ ID NO:1 (protein)
chain: MADLYENPMGLMGFEFIEFASPTPGTLEPIFEIMGFTKVATHRSKNVHLYRQGEINLILNNEPNSIASYFAAEHGPSVCGMAFRVKDSQKAYNRALELGAQPIHIDTGPMELNLPAIKGIGGAPLYLIDRFGEGSSIYDIDFVYLEGVERNPVGAGLKVIDHLTHNVYRGRMVYWANFYEKLFNFREARYFDIKGEYTGLTSKAMSAPDGMIRIPLNEESSKGAGQIEEFLMQFNGEGIQHVAFLTDDLVKTWDALKKIGMRFMTAPPDTYYEMLEGRLPDHGEPVDQLQARGILLDGSSVEGDKRLLLQIFSETLMGPVFFEFIQRKGDDGFGPDSFYRLFESIERDQVRRGVLTAD
modifications: SG1 variant HPPD
B3: SG20: HPPD variant, SEQ ID NO:4; P268D, T270A, E335P, G336D, N337S, K339Y, A340R, S344Q, I345M (protein)
chain: MADLYENPMGLMGFEFIEFASPTPGTLEPIFEIMGFTKVATHRSKNVHLYRQGEINLILNNEPNSIASYFAAEHGPSVCGMAFRVKDSQKAYNRALELGAQPIHIDTGPMELNLPAIKGIGGAPLYLIDRFGEGSSIYDIDFVYLEGVERNPVGAGLKVIDHLTHNVYRGRMVYWANFYEKLFNFREARYFDIKGEYTGLTSKAMSAPDGMIRIPLNEESSKGAGQIEEFLMQFNGEGIQHVAFLTDDLVKTWDALKKIGMRFMTAPDDAYYEMLEGRLPDHGEPVDQLQARGILLDGSSVEGDKRLLLQIFSETLMGPVFFEFIQRKGDDGFGPDSFYRLFEQMERDQVRRGVLTAD
modifications: SG20 mutant HPPD
notes: P268D, T270A, E335P, G336D, N337S, K339Y, A340R, S344Q, I345M
B4: SG22: HPPD variant, SEQ ID NO:5; P268D, E335N, G336D, N337S, A340R, I345M (protein)
chain: MADLYENPMGLMGFEFIEFASPTPGTLEPIFEIMGFTKVATHRSKNVHLYRQGEINLILNNEPNSIASYFAAEHGPSVCGMAFRVKDSQKAYNRALELGAQPIHIDTGPMELNLPAIKGIGGAPLYLIDRFGEGSSIYDIDFVYLEGVERNPVGAGLKVIDHLTHNVYRGRMVYWANFYEKLFNFREARYFDIKGEYTGLTSKAMSAPDGMIRIPLNEESSKGAGQIEEFLMQFNGEGIQHVAFLTDDLVKTWDALKKIGMRFMTAPDDTYYEMLEGRLPDHGEPVDQLQARGILLDGSSVEGDKRLLLQIFSETLMGPVFFEFIQRKGDDGFGNDSFKRLFESMERDQVRRGVLTAD
modifications: SG22 mutant HPPD
notes: P268D, E335N, G336D, N337S, A340R, I345M

What was measured:
Thorne soybean plants = test: Greenhouse herbicide spray application on T0 soybean plants; assay type: in vivo; settings: single gene cassettes in Thorne soybean, T0 plants sprayed with Cmpd. 1
Description: SG1, SG10, SG20, and SG22 were transformed as single gene cassettes into Thorne soybean plants and T0 plants were sprayed with Cmpd. 1 to measure herbicide tolerance. Each iteration of mutant identified in the bacterial screening assay performed better than the previous version (SG20>SG10>SG1).

Cmpd. 1 = test: HitMix bacterial competition experiment against Cmpd. 1; assay type: cell-based; settings: plasmid DNA of SG1, SG10 and reference proteins mixed, transformed and screened against Cmpd. 1
Description: Screening variant libraries: In order to select improved variants, libraries of varying complexity were constructed in the pRANGER backbone. The first significant library to be screened was a multi-site saturation library, in which amino acid positions 338, 339, 340, and 341 were randomized with NNK codons, which use 32 codons to encode all 20 amino acids, for a theoretical complexity of 1.6×10^5 unique protein variants. Approximately 500,000 variants were transformed and screened in a bacterial competition assay against 5 mM Cmpd. 1 (2-chloro-3-(methylsulfanyl)-N-(1-methyl-1H-tetrazol-5-yl)-4-(trifluoromethyl)benzamide), and surviving clones were sequenced. After 3 rounds of subculturing, a single sequence was found and designated SG1 (Table 1). This sequence was used as the base gene for a 2nd generation library saturating positions 268, 270, 340, and 345. Similarly, these libraries were screened and SG10 (Table 1) was obtained from sequencing the surviving cultures at high concentrations of Cmpd. 1. To confirm that the hits had improved tolerance relative to K610, a “HitMix” competition experiment was carried out. Briefly, the plasmid DNA encoding each variant to be competed were mixed together in an Eppendorf tube, and then the DNA mixture was transformed and screened against Cmpd. 1 as previously described.

E. coli = test: Brown Color Assay (cell-based colorimetric assay of HPPD activity and tolerance to HPPD inhibitors); settings: in the presence of 1 mM Cmpd. 1; for brown color formation: read at 440 nm
Protocol: A specific, although non-limiting, type of assay that can be used to evaluate the HPPD sequences of the invention is a colorimetric assay. In this assay, a YT-broth-type culture medium with 1% agarose, 5 mM L-Tyrosine and 42 mM Succinate, which contains the selection agent for the vector pSE420 (Invitrogen, Karlsruhe, Germany) or a modified version of pSE420 (pSE420(RI)NX) is poured into deep well plates. E. coli culture in the exponential growth phase which contains the vector pSE420-HPPDx (HPPDx means any gene coding for a putative HPPD enzyme/protein) is applied to each well.
Confirmation of activity by Brown Color Assay: To confirm that the designated hits retain HPPD activity and are tolerant to HPPD inhibitors, a cell-based colorimetric assay was employed. Wild-type E. coli strains lack the HPPD pathway; therefore expressing an HPPD enzyme in the presence of the substrate hydroxyphenylpyruvate (HPP) leads to the accumulation of the product, homogentisate (HGA). HGA is, in turn, auto-oxidized to a brown pigment, pyomelanin, which can be read at 440 nm. When cells are grown in the presence of an herbicide, brown color formation is inhibited with no effect on cell growth. The pRANGER vector is a low-copy, broad host range vector that allows some expression in E. coli.

| Molecule | herbicide tolerance in planta (Thorne soybean plants) | outcome of HitMix competition among variants (Cmpd. 1) | brown color formation relative to HPPD(evo41) (E. coli) | brown color formation (E. coli) |
| --- | --- | --- | --- | --- |
| B1 | SG20>SG10>SG1 | emerged as the dominant sequence among all variants tested | improved relative to HPPD(evo41) | robust brown color formation |
| B2 | SG20>SG10>SG1 | – | improved relative to HPPD(evo41) | robust brown color formation |
| B3 | SG20>SG10>SG1 | – | – | – |
| B4 | performed similarly to SG1 | – | – | – |
